Like-named read-outs stand apart in the source and are kept apart here.
How the values were obtained:
[1] = biological target: NaV1.2 (UniProt P04775)
[2] = biological target: NaV1.3 (UniProt P08104)
[3] = biological target: NaV1.4 (UniProt P15390)
[4] = biological target: NaV1.5 (UniProt Q14524)
[5] = biological target: NaV1.6 (UniProt Q9WTU3)
[6] = biological target: NaV1.7 (UniProt Q15858)
[7] = biological target: NaV1.8/1.7L5 channel
[8] = biological target: NaChBac (Bacillus halodurans)
[9] = biological target: NaChBac F103A (Bacillus halodurans)
[10] = biological target: NaChBac Q107A (Bacillus halodurans)
[11] = biological target: NaChBac V109A (Bacillus halodurans)
[12] = biological target: NaChBac/F108A (Bacillus halodurans)
[13] = biological target: NaChBac/G105A (Bacillus halodurans)
[14] = biological target: NaChBac (Bacillus halodurans); remark: listed apart in the source

Sequence of UniProt P15390 (P15390 whole entry): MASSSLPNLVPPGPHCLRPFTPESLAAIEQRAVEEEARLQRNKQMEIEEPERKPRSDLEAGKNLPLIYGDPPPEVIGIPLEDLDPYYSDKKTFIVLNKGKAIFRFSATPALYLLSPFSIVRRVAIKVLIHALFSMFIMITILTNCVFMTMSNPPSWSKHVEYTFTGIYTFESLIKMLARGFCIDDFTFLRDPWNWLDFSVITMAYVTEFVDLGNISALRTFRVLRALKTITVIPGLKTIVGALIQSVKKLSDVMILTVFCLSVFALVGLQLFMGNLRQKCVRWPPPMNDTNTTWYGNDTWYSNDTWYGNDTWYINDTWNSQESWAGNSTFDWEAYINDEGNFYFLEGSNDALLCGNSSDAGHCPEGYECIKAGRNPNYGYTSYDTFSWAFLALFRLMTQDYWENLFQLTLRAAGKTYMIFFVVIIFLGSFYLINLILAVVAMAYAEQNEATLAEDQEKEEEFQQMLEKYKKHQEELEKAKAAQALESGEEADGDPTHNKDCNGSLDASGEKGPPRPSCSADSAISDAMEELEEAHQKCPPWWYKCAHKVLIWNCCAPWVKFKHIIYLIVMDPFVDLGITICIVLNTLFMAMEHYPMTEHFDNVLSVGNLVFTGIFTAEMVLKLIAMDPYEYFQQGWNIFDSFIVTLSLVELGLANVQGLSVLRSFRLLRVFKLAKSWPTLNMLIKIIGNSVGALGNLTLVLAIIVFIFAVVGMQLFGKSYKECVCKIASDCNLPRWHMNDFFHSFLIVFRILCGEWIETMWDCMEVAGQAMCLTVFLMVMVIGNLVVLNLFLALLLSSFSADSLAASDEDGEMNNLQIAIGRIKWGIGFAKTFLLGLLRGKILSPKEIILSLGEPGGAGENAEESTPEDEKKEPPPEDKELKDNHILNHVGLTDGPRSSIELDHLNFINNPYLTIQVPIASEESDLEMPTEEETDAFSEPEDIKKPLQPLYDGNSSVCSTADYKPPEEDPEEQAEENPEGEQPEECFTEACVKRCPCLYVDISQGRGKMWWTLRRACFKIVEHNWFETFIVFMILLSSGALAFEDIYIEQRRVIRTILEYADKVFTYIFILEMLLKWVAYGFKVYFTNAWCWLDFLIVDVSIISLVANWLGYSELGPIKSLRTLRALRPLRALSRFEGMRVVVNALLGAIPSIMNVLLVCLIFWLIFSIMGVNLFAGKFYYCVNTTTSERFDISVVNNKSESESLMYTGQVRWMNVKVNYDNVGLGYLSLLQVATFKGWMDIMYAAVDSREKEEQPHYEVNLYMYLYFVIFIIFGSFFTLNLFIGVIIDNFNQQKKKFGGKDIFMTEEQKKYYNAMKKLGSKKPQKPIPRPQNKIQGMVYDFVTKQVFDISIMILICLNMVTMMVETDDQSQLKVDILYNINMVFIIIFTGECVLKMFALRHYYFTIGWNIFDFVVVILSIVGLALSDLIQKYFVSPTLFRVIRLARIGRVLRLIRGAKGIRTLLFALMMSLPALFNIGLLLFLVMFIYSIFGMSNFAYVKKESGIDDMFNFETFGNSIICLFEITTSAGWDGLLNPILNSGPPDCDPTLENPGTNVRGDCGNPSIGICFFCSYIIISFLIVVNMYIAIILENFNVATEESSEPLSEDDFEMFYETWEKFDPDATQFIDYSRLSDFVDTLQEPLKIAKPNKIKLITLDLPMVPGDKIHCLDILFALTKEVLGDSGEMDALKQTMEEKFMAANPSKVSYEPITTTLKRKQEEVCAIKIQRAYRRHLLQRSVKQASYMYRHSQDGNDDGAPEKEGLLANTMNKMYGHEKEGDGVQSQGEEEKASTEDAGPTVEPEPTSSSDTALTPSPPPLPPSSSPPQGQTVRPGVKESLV
Sequence of UniProt Q15858 (Q15858 whole entry): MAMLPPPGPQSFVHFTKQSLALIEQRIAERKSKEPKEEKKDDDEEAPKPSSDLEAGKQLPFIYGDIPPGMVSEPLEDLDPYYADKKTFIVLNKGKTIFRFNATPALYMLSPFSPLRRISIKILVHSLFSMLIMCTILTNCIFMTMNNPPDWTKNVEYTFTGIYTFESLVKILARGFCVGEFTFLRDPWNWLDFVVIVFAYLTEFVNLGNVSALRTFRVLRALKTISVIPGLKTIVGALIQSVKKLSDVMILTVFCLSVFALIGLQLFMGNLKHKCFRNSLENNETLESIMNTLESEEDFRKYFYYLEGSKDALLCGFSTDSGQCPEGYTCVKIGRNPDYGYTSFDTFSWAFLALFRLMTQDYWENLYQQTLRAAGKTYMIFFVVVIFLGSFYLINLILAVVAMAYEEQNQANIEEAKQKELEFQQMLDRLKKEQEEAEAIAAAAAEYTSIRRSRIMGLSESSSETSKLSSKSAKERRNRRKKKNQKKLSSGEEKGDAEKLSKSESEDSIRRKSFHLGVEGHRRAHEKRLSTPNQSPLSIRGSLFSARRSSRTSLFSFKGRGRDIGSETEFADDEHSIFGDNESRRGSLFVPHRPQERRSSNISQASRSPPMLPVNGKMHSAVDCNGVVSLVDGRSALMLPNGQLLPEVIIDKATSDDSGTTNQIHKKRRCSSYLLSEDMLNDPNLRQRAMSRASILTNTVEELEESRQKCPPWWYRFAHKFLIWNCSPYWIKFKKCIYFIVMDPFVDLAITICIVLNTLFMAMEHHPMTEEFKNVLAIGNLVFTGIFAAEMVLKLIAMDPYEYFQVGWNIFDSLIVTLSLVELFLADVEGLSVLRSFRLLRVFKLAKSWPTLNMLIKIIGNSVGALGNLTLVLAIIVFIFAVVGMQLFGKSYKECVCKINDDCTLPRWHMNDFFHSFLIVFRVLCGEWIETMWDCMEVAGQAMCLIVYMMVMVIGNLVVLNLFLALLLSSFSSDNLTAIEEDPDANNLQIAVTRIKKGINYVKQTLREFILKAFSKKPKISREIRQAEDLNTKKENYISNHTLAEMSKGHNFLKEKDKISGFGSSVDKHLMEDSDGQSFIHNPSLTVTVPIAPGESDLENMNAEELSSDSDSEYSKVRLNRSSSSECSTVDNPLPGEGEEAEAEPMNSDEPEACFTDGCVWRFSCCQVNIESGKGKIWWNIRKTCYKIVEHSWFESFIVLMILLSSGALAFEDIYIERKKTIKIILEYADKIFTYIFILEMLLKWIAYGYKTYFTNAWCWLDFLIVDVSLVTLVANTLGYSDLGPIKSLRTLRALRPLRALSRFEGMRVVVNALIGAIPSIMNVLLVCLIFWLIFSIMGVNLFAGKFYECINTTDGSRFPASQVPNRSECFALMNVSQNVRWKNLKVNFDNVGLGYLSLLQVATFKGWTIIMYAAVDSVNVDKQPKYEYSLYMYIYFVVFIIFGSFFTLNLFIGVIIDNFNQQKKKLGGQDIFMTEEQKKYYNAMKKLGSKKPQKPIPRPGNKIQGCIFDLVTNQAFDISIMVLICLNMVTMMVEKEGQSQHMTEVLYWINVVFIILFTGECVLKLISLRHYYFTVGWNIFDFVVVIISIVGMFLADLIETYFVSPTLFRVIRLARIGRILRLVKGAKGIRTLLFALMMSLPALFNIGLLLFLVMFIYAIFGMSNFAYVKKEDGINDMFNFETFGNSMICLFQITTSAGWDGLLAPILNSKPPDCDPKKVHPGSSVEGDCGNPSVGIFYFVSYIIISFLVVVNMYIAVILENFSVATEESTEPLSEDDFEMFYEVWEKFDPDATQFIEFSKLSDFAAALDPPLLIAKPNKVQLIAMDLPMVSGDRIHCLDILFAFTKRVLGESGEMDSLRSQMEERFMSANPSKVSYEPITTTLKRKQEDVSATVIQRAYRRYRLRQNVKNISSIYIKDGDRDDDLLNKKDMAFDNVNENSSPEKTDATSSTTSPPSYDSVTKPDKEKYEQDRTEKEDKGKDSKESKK

Row | Substance | IC50 of inhibition of the peak current, whole-cell patch clamp, dose–response curve [1] [nM] | IC50 of inhibition of the peak current, whole-cell patch clamp, dose–response curve [2] [nM] | IC50 of inhibition of the peak current, whole-cell patch clamp, dose–response curve [3] [nM] | IC50 of inhibition of the peak current, whole-cell patch clamp, dose–response curve [4] [nM] | IC50 of inhibition of the peak current, whole-cell patch clamp, dose–response curve [5] [nM] | IC50 of inhibition of the peak current, whole-cell patch clamp, dose–response curve [6] [nM] | IC50 of inhibition of the peak current, whole-cell patch clamp, dose–response curve [7] [nM] | IC50 of inhibition of the current, whole-cell patch clamp, dose–response curve [8] [nM] | IC50 of inhibition of the current, whole-cell patch clamp, dose–response curve [9] [nM] | IC50 of inhibition of the current, whole-cell patch clamp, dose–response curve [10] [nM] | IC50 of inhibition of the current, whole-cell patch clamp, dose–response curve [11] [nM] | IC50 of inhibition of the current, whole-cell patch clamp, dose–response curve [12] [nM] | IC50 of inhibition of the current, whole-cell patch clamp, dose–response curve [13] [nM] | IC50 of inhibition of the current, whole-cell patch clamp, dose–response curve [14] [nM]
1 | JZTx-14 (from UniProt B1P1C0 30-62) (peptide) | 194 | 426 | 290 | 478 | 159 | 189 | 824 | 320 | 833 | 810 | 1370 | 3470 | 653 | 
2 | JZTx-27 (peptide) |  |  |  |  |  |  |  |  |  |  |  | 117 |  | 46.7
